Experimental data taken from article PMC7118173 (Nature Communications, 2020).

Target: the molecule itself
Test: negative stain electron microscopy; MtbSepFΔML 50 µM in 50 mM HEPES pH 7.4, 300 mM KCl, 10 mM MgCl2

B1: M. tuberculosis SepFΔML (domain or fragment)
chain: EDGHPLSKITTLRPKDYSEARTIGERFRDGSPVIMDLVSMDNADAKRLVDFAAGLAFALRGSFDKVATKVFLLSPADVDVSPEERRRIAETGFYAYQ
notes: also called MtbSepFΔML
Question: Does B1 bind?
Answer: Result: binds
